Test results as given in the RNAGym collection of RNA variant scans (doi:10.1021/acssynbio.7b00057).

B1: Pistol ribozyme (parent)
chain: GGGUCGUUGUUCCAUAAUCGCGUGGAUAUGGCACGCAAGUUUCUACCGGGCACCGUAAAUGUCCGACUGGAGCCGUUCGGGCGGCUAUAAACAGACCUCAGGCCCGAAGCGUGGCGGCACCUGCCGCCGGUGGUAAAAAAGAUCGGAAGAGCACACGUCU

Variants of: B1
Assay: aptazyme ON/OFF ratio, guanine; higher = stronger switching; co-transcriptional cleavage with and without guanine

Variant	aptazyme ON/OFF ratio
U8G G9C U10C U11C C12A C13U	1.07
U8G G9C U10C U11C C12A C13A	1.02
U8G G9C C12U C13U	1.06
U8G G9C C12U C13A	1.05
U8G G9C C12U C13G	1.04
U8G G9A U11A C13A	1.14
U8G G9A U11A C13U	1.23
U8G G9A U11A C13G	1.07
U8G G9C U10C U11A C13G	1.05
U8G G9C U10C U11A C13U	1.1
U8G G9C U10C U11A C13A	1.09
U8G G9C U10G U11C C12A C13U	1.03
U8G G9C U10G U11C C12A C13G	1.04
U8G G9C U10G U11C C12A C13A	1.04
U8G G9A U10G	2.04
U8G G9C U10G U11G C12G	1.31
U8G G9C U10G U11G C12A	1.21
U8G G9C U10G U11G C12U	1.23
U8G G9C U10A U11A C12A C13G	1.09
U8G G9C U10A U11A C12A C13U	1.18
U8G G9C U10A U11A C12A C13A	1.12

Variant	aptazyme ON/OFF ratio
U8G G9C U10A U11C C12G C13G	1.05
U8G G9C U10A U11C C12G C13U	1.14
U8G G9C U10A U11C C12G C13A	1.05
U8G G9C C12A C13A	1.04
U8G G9C C12A C13U	1.07
U8G G9C C12A C13G	1.03
U8G G9A U10C U11G C13U	1.09
U8G G9A U10C U11G C13A	1.11
U8G G9A U10C U11G C13G	1.16
U8G G9C U10A U11C C12G	1.14
U8G G9C U10A U11C C12U	1.04
U8G G9C U10A U11C C12A	1.12
U8G G9C U10A U11C C12U C13U	1.02
U8G G9C U10A U11C C12U C13G	1.06
U8G G9C U10A U11C C12U C13A	1.09
U8G G9A U10G U11A C12G	1.6
U8G G9A U10G U11A C12U	1.35
U8G G9A U10G U11A C12A	1.34
U8G G9A U10C U11G C12G C13U	1.14
U8G G9A U10C U11G C12G C13A	1.34
U8G G9A U10C U11G C12G C13G	1.42

Variant	aptazyme ON/OFF ratio
U8G G9A U10G C12G C13G	1.16
U8G G9A U10G C12G C13U	1.27
U8G G9A U10G C12G C13A	1.52
U8G G9A U10G U11A C12U C13A	1.34
U8G G9A U10G U11A C12U C13U	1.47
U8G G9A U10G U11A C12U C13G	1.33
U8G G9C U10C C12G C13U	1.08
U8G G9C U10C C12G C13G	1.06
U8G G9C U10C C12G C13A	1.16
U8G G9A U10G U11G C12A	1.32
U8G G9A U10G U11G C12U	1.12
U8G G9A U10G U11G C12G	1.33
U8G G9C U10G C13U	1.24
U8G G9C U10G C13G	1.12
U8G G9C U10G C13A	1.27
U8G G9C U10A C12G C13G	1.16
U8G G9C U10A C12G C13A	1.16
U8G G9C U10A C12G C13U	1.17
U8G G9A U10G C12U C13G	1.16
U8G G9A U10G C12U C13U	1.18
U8G G9A U10G C12U C13A	1.32

Variant	aptazyme ON/OFF ratio
U8G G9C U10A U11G C12G C13U	1.22
U8G G9C U10A U11G C12G C13G	1.31
U8G G9C U10A U11G C12G C13A	1.35
U8G G9C U10G C12U C13U	1.26
U8G G9C U10G C12U C13A	1.08
U8G G9C U10G C12U C13G	1.11
U8G G9C C12G C13U	1.05
U8G G9C C12G C13G	1.03
U8G G9C C12G C13A	1.05
U8G G9A U10G C12A	1.44
U8G G9A U10G C12U	1.39
U8G G9A U10G C12G	1.34
U8G G9C U10G U11A C13A	1.05
U8G G9C U10G U11A C13G	1.03
U8G G9C U10G U11A C13U	1.06
U8G G9C U10A U11C	1.03
U8G G9C U10A U11G	1.18
U8G G9C U10A U11A	1.18
U8G G9A U10G C13U	1.58
U8G G9A U10G C13G	1.34
U8G G9A U10G C13A	0.997
